Some results are limits rather than exact numbers.

By Kd is commonly meant a measure of binding affinity in units of concentration. A higher Kd goes with a looser complex.

Data set [1] deals with AnxA2 (Rattus norvegicus). The data set is described as follows: BLI. The settings on record: RNA-binding buffer: 10 mM triethanolamine pH 7.4, 50 mM KCl, 1 mM DTT, 2 mM MgSO4, 100 uM CaCl2; spot blot at RT, blocked with 1 mg/mL tRNA; BLI temperature ….
Data set [2] deals with Δ188AnxA11 (Rattus norvegicus). The data set is described as follows: BLI. The note with it: RNA-binding buffer: 10 mM triethanolamine pH 7.4, 50 mM KCl, 1 mM DTT, 2 mM MgSO4, 100 uM CaCl2; spot blot at RT, blocked with 1 mg/mL tRNA; BLI temperature ….
Data set [3] deals with AnxA13 (Rattus norvegicus). The data set is described as follows: BLI. The note with it: RNA-binding buffer: 10 mM triethanolamine pH 7.4, 50 mM KCl, 1 mM DTT, 2 mM MgSO4, 100 uM CaCl2; spot blot at RT, blocked with 1 mg/mL tRNA; BLI temperature ….
The test system of data set [4] is Δ142AnxA7 (Rattus norvegicus). The data set is described as follows: BLI. The note with it: RNA-binding buffer: 10 mM triethanolamine pH 7.4, 50 mM KCl, 1 mM DTT, 2 mM MgSO4, 100 uM CaCl2; spot blot at RT, blocked with 1 mg/mL tRNA; BLI temperature ….
Data set [5] deals with the molecule itself. In words: SDS-PAGE (Coomassie Brilliant Blue staining); purified recombinant rat Anxs on 4%-15% SDS-PAGE, denaturation buffer with beta-mercaptoethanol; dimeric forms seen as faint bands beside the monomer; nature of the dimers not known (disulfide or tight noncovalent).

With anxA2 3'UTR, the Kd in data set [1] was 192 nM; in data set [2], more than 500 nM; in data set [3] it was 246 nM; in data set [4] it was 174 nM. For c-myc 3'UTR, the Kd worked out at 73.9 nM in data set [1], 124 nM in data set [2], 130 nM in data set [3] and 126 nM in data set [4]. Regarding c-myc 5'UTR, the Kd in data set [1] is 37.2 nM.

B1: rat Annexin A2 (natural protein, UniProt Q07936 1-339, looked up)
chain: MSTVHEILCKLSLEGDHSTPPSAYGSVKPYTNFDAERDALNIETAIKTKGVDEVTIVNILTNRSNAQRQDIAFAYQRRTKKELPSAMKSALSGHLETVMLGLLKTPAQYDASELKASMKGLGTDEDSLIEIICSRTNQELQEINRVYKEMYKTDLEKDIISDTSGEFRKLLVALAKGKRAEDGSVIDYELIDQDARELYDAGVKRKGTDVPKWISIMTERSVCHLQKVFERYKSYSPYDMLESIRKEVKGDLENAFLNLVQCIQNKPLYFADRLYDSMKGKGTRDKVLIRIMVSRSEVDMLKIRSEFKRKYGKSLYYFIQQDTKGDYQKALLYLCGGDD
notes: The forward primer puts ATGGGT before the natural start codon, so Met-Gly may precede the natural Met; also called AnxA2; source: E. coli BL21 (DE3), purified (Ni2+-NTA, size exclusion chromatography)
Regarding B1, the binding result in data set [5] was “binds”.

B2: rat Annexin A8 (natural protein, UniProt Q4FZU6 1-327, looked up)
chain: MAWWKAWVEQEGVSVKGSSHFNPDPDAETLYKAMKGIGTNEQAIIDVLTKRSNVQRQQIAKSFKAQFGKDLTETLKSELSGKFERLIVALMYPPYRYEAKELHDAMKGLGTKEGVIIEILASRTKNQLREIMKAYEEDYGSTLEEDIQGDTSGYLERILVCLLQGCRDDVSGFVDPGLALQDAQDLHAAGEKILGTDEMKFITILCTRSATHLMRVFEEYEKIANKSIEDSIKSETHGSLEEAMLTVVKCTRNVHSYFAERLYYAMKGAGTLDGTLIRNIVSRSEIDLNLIKSQFQKMYGKTLSSMIMGDTSGYYKTALLNLVGTDL
notes: Annexin A8, rat, 327 aa, cDNA from total RNA of rat lung; The forward primer puts ATGGGT before the natural start codon, so Met-Gly may precede the natural Met; also called AnxA8; source: E. coli BL21 (DE3), purified (Ni2+-NTA, size exclusion chromatography)
Take B2: in data set [5], the binding result is on record as “binds”.

B3: rat Annexin A1 (natural protein, UniProt P07150 1-346, looked up)
chain: MAMVSEFLKQACYIEKQEQEYVQAVKSYKGGPGSAVSPYPSFNPSSDVAALHKAIMVKGVDEATIIDILTKRTNAQRQQIKAAYLQETGKPLDETLKKALTGHLEEVVLAMLKTPAQFDADELRAAMKGLGTDEDTLIEILTTRSNQQIREITRVYREELKRDLAKDITSDTSGDFRNALLALAKGDRCEDMSVNQDLADTDARALYEAGERRKGTDVNVFNTILTTRSYPHLRKVFQNYRKYSQHDMNKALDLELKGDIEKCLTTIVKCATSTPAFFAEKLYEAMKGAGTRHKTLIRIMVSRSEIDMNEIKVFYQKKYGIPLCQAILDETKGDYEKILVALCGGN
notes: Annexin A1, rat, isoform X1, 346 aa, cDNA by RT-PCR from PC12 cells; The forward primer puts ATGGGT before the natural start codon, so Met-Gly may precede the natural Met; also called AnxA1; source: E. coli BL21 (DE3), purified (Ni2+-NTA, size exclusion chromatography)
Take B3: the binding result in data set [5] is “binds”.

B4: rat Annexin A3 (natural protein, UniProt P14669 1-324, looked up)
chain: MAASLWVGPRGTINNYPGFNPSVDAEAIRKAIKGIGTDEKTLINILTERSNAQRQLIVKQYQEAYEQALKADLKGDLSGHFEHVMVALITAPAVFDAKQLKKSMRGMGTDEDTLIEILTTRTSRQMKEISQAYYTAYKKNLRDDISSETSGDFRKALLTLADGGRDESLKVDEHLAKKDAQTLYDAGEKKWGTDEDKFTEILCLRSFPQLKLTFDEYRNISQKDIEDSIKGELSGHFEDLLLAVVRCTRNTPAFLAGRLHQALKGAGTDEFTLNRIMVSRSEIDLLDIRREFKKHYGCSLYSAIQSDTSGDYRTVLLKICGGDD
notes: The forward primer puts ATGGGT before the natural start codon, so Met-Gly may precede the natural Met; also called AnxA3; source: E. coli BL21 (DE3), purified (Ni2+-NTA, size exclusion chromatography)
With B4, the binding result in data set [5] is “binds”.
